Test results taken from IntAct's records for PubMed 16282588.

B1: G/T mismatch-specific thymine DNA glycosylase (Mus musculus), P56581 (parent)
chain: MDAEAARSYSLEQVQALYSFPFQQMMAEVPNMAVTTGQQVPAVAPNMATVTEQQVPEDAPVQEPAPEAPKRRKRKPRAAEPQEPVEPKKPATSKKSGKSTKSKEKQEKITDAFKVKRKVDRFNGVSEAELLTKTLPDILTFNLDIVIIGINPGLMAAYKGHHYPGPGNHFWKCLFMSGLSEVQLNHMDDHTLPGKYGIGFTNMVERTTPGSKDLSSKEFREGGRILVQKLQKYQPRIAVFNGKCIYEIFSKEVFGVKVKNLEFGLQPHKIPDTETLCYVMPSSSARCAQFPRAQDKVHYYIKLKDLRDQLKGIERNADVQEVQYTFDLQLAQEDAKKMAVKEEKYDPGYEAAYGGAYGENPCNGEPCGIASNGLTAHSAEPRGEAAPSDVPNGQWMAQSFAEQIPSFNNCGTREQEEESHA

Variants of: B1
Conditions: with ncoa1_human NCOA1, Q15788
Sequence of ncoa1_human NCOA1, Q15788 (Q15788 whole entry): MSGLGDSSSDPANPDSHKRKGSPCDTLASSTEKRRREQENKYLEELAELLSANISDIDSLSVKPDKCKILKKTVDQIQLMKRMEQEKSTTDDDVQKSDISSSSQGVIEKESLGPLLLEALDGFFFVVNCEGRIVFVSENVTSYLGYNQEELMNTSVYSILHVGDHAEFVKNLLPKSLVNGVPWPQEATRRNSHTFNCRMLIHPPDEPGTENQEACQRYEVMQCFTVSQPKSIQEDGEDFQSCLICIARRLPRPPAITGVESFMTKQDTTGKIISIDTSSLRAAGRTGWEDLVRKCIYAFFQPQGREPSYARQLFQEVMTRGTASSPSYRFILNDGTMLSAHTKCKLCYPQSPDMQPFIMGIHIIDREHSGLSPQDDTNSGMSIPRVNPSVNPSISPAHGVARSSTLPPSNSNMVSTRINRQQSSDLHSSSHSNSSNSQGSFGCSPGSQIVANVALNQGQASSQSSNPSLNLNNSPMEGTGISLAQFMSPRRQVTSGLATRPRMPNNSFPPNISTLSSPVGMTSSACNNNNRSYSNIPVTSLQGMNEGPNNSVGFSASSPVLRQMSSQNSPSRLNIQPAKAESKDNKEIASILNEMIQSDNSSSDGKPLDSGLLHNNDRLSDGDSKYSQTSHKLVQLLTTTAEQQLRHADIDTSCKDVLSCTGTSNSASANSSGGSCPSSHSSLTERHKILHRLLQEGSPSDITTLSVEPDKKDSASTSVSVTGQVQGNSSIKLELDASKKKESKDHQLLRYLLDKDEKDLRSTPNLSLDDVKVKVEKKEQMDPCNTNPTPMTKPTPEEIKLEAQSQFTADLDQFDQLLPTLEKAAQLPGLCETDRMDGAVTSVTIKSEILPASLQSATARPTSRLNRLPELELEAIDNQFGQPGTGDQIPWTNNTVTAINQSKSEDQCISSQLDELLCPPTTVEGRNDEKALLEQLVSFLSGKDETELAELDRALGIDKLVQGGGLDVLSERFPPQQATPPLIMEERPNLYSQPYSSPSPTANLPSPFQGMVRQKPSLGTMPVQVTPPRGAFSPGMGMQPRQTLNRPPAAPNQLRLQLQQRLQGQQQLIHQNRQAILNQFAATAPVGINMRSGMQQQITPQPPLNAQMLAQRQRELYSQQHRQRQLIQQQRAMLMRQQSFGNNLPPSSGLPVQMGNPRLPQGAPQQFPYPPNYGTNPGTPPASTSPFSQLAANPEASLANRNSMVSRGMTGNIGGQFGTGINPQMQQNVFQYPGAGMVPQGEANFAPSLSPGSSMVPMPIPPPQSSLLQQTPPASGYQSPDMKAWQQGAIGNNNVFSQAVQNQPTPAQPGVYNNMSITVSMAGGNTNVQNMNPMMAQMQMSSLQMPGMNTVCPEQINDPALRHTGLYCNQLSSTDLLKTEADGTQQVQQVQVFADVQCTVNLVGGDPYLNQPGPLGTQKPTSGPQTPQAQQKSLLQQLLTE

Row | Variant | effect of a mutation on the interaction
1 | MDAEAARSYSLEQVQALYSFPFQQMMAEVPNMAVTTGQQVPAVAPNMATVTEQQVPEDAPVQEPAPEAPKRRKRKPRAAEPQEPVEPKKPATSKKSGKSTKSKEKQEKITDAFKVKRKVDRFNGVSEAELLTKTLPDILTFNLDIVIIGIAPGLMAAYKGHHYPGPGNHFWKCLFMSGLSEVQLNHMDDHTLPGKYGIGFTNMVERTTPGSKDLSSKEFREGGRILVQKLQKYQPRIAVFNGKCIYEIFSKEVFGVKVKNLEFGLQPHKIPDTETLCYVMPSSSARCAQFPRAQDKVHYYIKLKDLRDQLKGIERNADVQEVQYTFDLQLAQEDAKKMAVKEEKYDPGYEAAYGGAYGENPCNGEPCGIASNGLTAHSAEPRGEAAPSDVPNGQWMAQSFAEQIPSFNNCGTREQEEESHA [N151A] | with no effect
2 | MDAEAARSYSLEQVQALYSFPFQQMMAEVPNMAVTTGQQVPAVAPNMATVTEQQVPEDAPVQEPAPEAPKRRKRKPRAAEPQEPVEPKKPATSKKSGKSTKSKEKQEKITDAFKVKRKVDRFNGVSEAELLTKTLPDILTFNLDIVIIGINPGLMAAYKGHHYPGPGNHFWKCLFMSGLSEVQLNHMDDHTLPGKYGIGFTNMVERTTPGSKDLSSKEFREGGRILVQKLQKYQPRIAVFNGKCIYEIFSKEVFGVKVKNLEFGLQPHKIPDTETLCYVMPSSSARCAQFPRAQDKVHYYIKLKDLRDQLKGIERNADVQEVQYTFDLQLAQEDAKKMAVKEEKYDPGYEAAFGGAFGENPCNGEPCGIASNGLTAHSAEPRGEAAPSDVPNGQWMAQSFAEQIPSFNNCGTREQEEESHA [Y353F;Y357F] | decreasing interaction strength
3 | MDAEAARSYSLEQVQALYSFPFQQMMAEVPNMAVTTGQQVPAVAPNMATVTEQQVPEDAPVQEPAPEAPKRRKRKPRAAEPQEPVEPKKPATSKKSGKSTKSKEKQEKITDAFKVKRKVDRFNGVSEAELLTKTLPDILTFNLAIAAIGINPGLMAAYKGHHYPGPGNHFWKCLFMSGLSEVQLNHMDDHTLPGKYGIGFTNMVERTTPGSKDLSSKEFREGGRILVQKLQKYQPRIAVFNGKCIYEIFSKEVFGVKVKNLEFGLQPHKIPDTETLCYVMPSSSARCAQFPRAQDKVHYYIKLKDLRDQLKGIERNADVQEVQYTFDLQLAQEDAKKMAVKEEKYDPGYEAAYGGAYGENPCNGEPCGIASNGLTAHSAEPRGEAAPSDVPNGQWMAQSFAEQIPSFNNCGTREQEEESHA [D144A;V146A;I147A] | with no effect
4 | MDAEAARSYSLEQVQALYSFPFQQMMAEVPNMAVTTGQQVPAVAPNMATVTEQQVPEDAPVQEPAPEAPKRRKRKPRAAEPQEPVEPKKPATSKKSGKSTKSKEKQEKITDAFKVKRKVDRFNGVSEAELLTKTLPDILTFNLDIVIIGINPGLMAAYKGHHYPGPGNHFWKCLFMSGLSEVQLNHMDDHTLPGKYGIGFTNMVERTTPGSKDLSSKEFREGGRILVQKLQKYQPRIAVFNGKCIYEIFSKEVFGVKVKNLEFGLQPHKIPDTETLCYVMPSSSARCAQFPRAQDKVHYYIKLKDLRDQLKGIERNADVQEVQYTFDLQLAQEDAKKMAVKEEKFDPGFEAAFGGAFGENPCNGEPCGIASNGLTAHSAEPRGEAAPSDVPNGQWMAQSFAEQIPSFNNCGTREQEEESHA [Y345F;Y349F;Y353F;Y357F] | decreasing interaction strength
5 | MDAEAARSYSLEQVQALYSFPFQQMMAEVPNMAVTTGQQVPAVAPNMATVTEQQVPEDAPVQEPAPEAPKRRKRKPRAAEPQEPVEPKKPATSKKSGKSTKSKEKQEKITDAFKVKRKVDRFNGVSEAELLTKTLPDILTFNLDIVIIGINPGLMAAYKGHHYPGPGNHFWKCLFMSGLSEVQLNHMDDHTLPGKYGIGFTNMVERTTPGSKDLSSKEFREGGRILVQKLQKYQPRIAVFNGKCIYEIFSKEVFGVKVKNLEFGLQPHKIPDTETLCYVMPSSSARCAQFPRAQDKVHYYIKLKDLRDQLKGIERNADVQEVQYTFDLQLAQEDAKKMAVKEEKFDPGFEAAYGGAYGENPCNGEPCGIASNGLTAHSAEPRGEAAPSDVPNGQWMAQSFAEQIPSFNNCGTREQEEESHA [Y345F;Y349F] | decreasing interaction strength

Variants of: B1
Conditions: with ncoa1_human NCOA1, Q15788
Remark: another data set of the same source

Row | Variant | effect of a mutation on the interaction
6 | MDAEAARSYSLEQVQALYSFPFQQMMAEVPNMAVTTGQQVPAVAPNMATVTEQQVPEDAPVQEPAPEAPKRRKRKPRAAEPQEPVEPKKPATSKKSGKSTKSKEKQEKITDAFKVKRKVDRFNGVSEAELLTKTLPDILTFNLDIVIIGINPGLMAAYKGHHYPGPGNHFWKCLFMSGLSEVQLNHMDDHTLPGKYGIGFTNMVERTTPGSKDLSSKEFREGGRILVQKLQKYQPRIAVFNGKCIYEIFSKEVFGVKVKNLEFGLQPHKIPDTETLCYVMPSSSARCAQFPRAQDKVHYYIKLKDLRDQLKGIERNADVQEVQYTFDLQLAQEDAKKMAVKEEKADPGAEAAYGGAYGENPCNGEPCGIASNGLTAHSAEPRGEAAPSDVPNGQWMAQSFAEQIPSFNNCGTREQEEESHA [Y345A;Y349A] | decreasing interaction strength
7 | MDAEAARSYSLEQVQALYSFPFQQMMAEVPNMAVTTGQQVPAVAPNMATVTEQQVPEDAPVQEPAPEAPKRRKRKPRAAEPQEPVEPKKPATSKKSGKSTKSKEKQEKITDAFKVKRKVDRFNGVSEAELLTKTLPDILTFNLDIVIIGINPGLMAAYKGHHYPGPGNHFWKCLFMSGLSEVQLNHMDDHTLPGKYGIGFTNMVERTTPGSKDLSSKEFREGGRILVQKLQKYQPRIAVFNGKCIYEIFSKEVFGVKVKNLEFGLQPHKIPDTETLCYVMPSSSARCAQFPRAQDKVHYYIKLKDLRDQLKGIERNADVQEVQYTFDLQLAQEDAKKMAVKEEKADPGAEAAAGGAAGENPCNGEPCGIASNGLTAHSAEPRGEAAPSDVPNGQWMAQSFAEQIPSFNNCGTREQEEESHA [Y345A;Y349A;Y353A;Y357A] | decreasing interaction strength
8 | MDAEAARSYSLEQVQALYSFPFQQMMAEVPNMAVTTGQQVPAVAPNMATVTEQQVPEDAPVQEPAPEAPKRRKRKPRAAEPQEPVEPKKPATSKKSGKSTKSKEKQEKITDAFKVKRKVDRFNGVSEAELLTKTLPDILTFNLDIVIIGINPGLMAAYKGHHYPGPGNHFWKCLFMSGLSEVQLNHMDDHTLPGKYGIGFTNMVERTTPGSKDLSSKEFREGGRILVQKLQKYQPRIAVFNGKCIYEIFSKEVFGVKVKNLEFGLQPHKIPDTETLCYVMPSSSARCAQFPRAQDKVHYYIKLKDLRDQLKGIERNADVQEVQYTFDLQLAQEDAKKMAVKEEKYDPGYEAAAGGAAGENPCNGEPCGIASNGLTAHSAEPRGEAAPSDVPNGQWMAQSFAEQIPSFNNCGTREQEEESHA [Y353A;Y357A] | decreasing interaction strength
